Source: article PMC5774706, “Investigation of the proton relay system operative in human cystosolic aminopeptidase P” (PLoS ONE, 2018)
Residue numbers refer to the chain shown, from its start. Numbers in names are those of the source.

How the values were obtained:
[1] = biological target: the molecule itself; experiment: AUC; sedimentation velocity, 40000 rpm, 20°C, 10 mM Tris-HCl, absorbance at 280 nm, c(s) by Sedfit; protein at 1 mg/mL; dimer to monomers
[2] = biological target: the molecule itself; experiment: AUC; sedimentation velocity, 40000 rpm, 20°C, 10 mM Tris-HCl, absorbance at 280 nm, c(s) by Sedfit; protein at 0.1 mg/mL; dimer to monomers
[3] = biological target: the molecule itself; experiment: AUC; sedimentation velocity, 40000 rpm, 20°C, 10 mM Tris-HCl, absorbance at 280 nm, c(s) by Sedfit; protein at 0.1 mg/mL with 10 mM guanidine hydrochloride; dimer to monomers

B1: human cytosolic aminopeptidase P, wild-type (enzyme, UniProt Q9NQW7 1-623, looked up)
chain: MPPKVTSELLRQLRQAMRNSEYVTEPIQAYIIPSGDAHQSEYIAPCDCRRAFVSGFDGSAGTAIITEEHAAMWTDGRYFLQAAKQMDSNWTLMKMGLKDTPTQEDWLVSVLPEGSRVGVDPLIIPTDYWKKMAKVLRSAGHHLIPVKENLVDKIWTDRPERPCKPLLTLGLDYTGISWKDKVADLRLKMAERNVMWFVVTALDEIAWLFNLRGSDVEHNPVFFSYAIIGLETIMLFIDGDRIDAPSVKEHLLLDLGLEAEYRIQVHPYKSILSELKALCADLSPREKVWVSDKASYAVSETIPKDHRCCMPYTPICIAKAVKNSAESEGMRRAHIKDAVALCELFNWLEKEVPKGGVTEISAADKAEEFRRQQADFVDLSFPTISSTGPNGAIIHYAPVPETNRTLSLDEVYLIDSGAQYKDGTTDVTRTMHFGTPTAYEKECFTYVLKGHIAVSAAVFPTGTKGHLLDSFARSALWDSGLDYLHGTGHGVGSFLNVHEGPCGISYKTFSDEPLEAGMIVTDEPGYYEDGAFGIRIENVVLVVPVKTKYNFNNRGSLTFEPLTLVPIQTKMIDVDSLTDKECDWLNNYHLTCRDVIGKELQKQGRQEALEWLIRETQPISKQH
notes: human cytosolic aminopeptidase P (hcAMPP), encoded by XPNPEP1, residues M1 to H623, cloned into pET-28a (NdeI/HindIII); The His-tag is thrombin cleavable; also called hcAMPP; wild-type hcAMPP; source: E. coli Rosetta (DE3), purified (Ni2+ chelating column)
stoichiometry N [1]: 2

B2: human cytosolic aminopeptidase P, Y527F mutant (enzyme, UniProt Q9NQW7 1-623, looked up)
chain: B1 chain with Y527F
notes: human cytosolic aminopeptidase P (hcAMPP), encoded by XPNPEP1, residues M1 to H623, with Y527F made by QuikChange mutagenesis of pET28a-hcAMPP; The His-tag is thrombin cleavable; no cleavage is described; also called Y527F hcAMPP; Tyr527Phe hcAMPP; source: E. coli Rosetta (DE3), purified (Ni2+ chelating column)
dimer:monomer ratio [2]: 1.8
dimer:monomer ratio [1]: 3.4
stoichiometry N [1]: 2

B3: human cytosolic aminopeptidase P, R535A mutant (enzyme, UniProt Q9NQW7 1-623, looked up)
chain: B1 chain with R535A
notes: human cytosolic aminopeptidase P (hcAMPP), encoded by XPNPEP1, residues M1 to H623, with R535A made by QuikChange mutagenesis of pET28a-hcAMPP; The His-tag is thrombin cleavable; no cleavage is described; also called R535A hcAMPP; Arg535Ala hcAMPP; source: E. coli Rosetta (DE3), purified (Ni2+ chelating column)
dimer:monomer ratio (printed as monomer:dimer 1:0.67) [2]: 0.67
stoichiometry N [1]: 2
dimer:monomer ratio (printed as monomer:dimer 1:1.5) [3]: 1.5
